{"source": "patent US5508261A", "about": "“Analogs of glycoprotein hormones having altered receptor binding specificity and activity and methods for preparing and using same” (University of Medicine & Dentistry of New Jersey, priority 1995, dated 1996)", "molecules": {"B1": {"name": "eCG: equine gonadotropin control (text calls the control eLH, equine lutropin) (protein)", "chain": "SRGPLRPLCRPINATLAAEKEACPICITFTTSICAGYCPSMVRVMPAALPAIPQPVCTYRELRFASIRLPGCPPGVDPMVSFPVALSCHCGPCQIKTTDCGVFRDQPLACAPQASSSSKDPPSQPLTSTSTPTPGASRRSSHPLPIKTS"}}, "key": {"[1]": {"test_system": "rat luteal ovarian LH receptors", "assay": "Inhibition of 125I-hCG binding to rat corpora luteal LH receptors (radioligand receptor assay)", "settings": "concentration of recombinant hCG for 50% inhibition of 125I-hCG binding divided by that of analog", "description": "(§1) The term \"N.D.\" means not determined because concentrations of analog were not employed high enough to detect 50% inhibition.\n(§2) An aliquot of the ligation mixture was taken and used to transform DH5-alpha strain E. coli. (obtained from Bethesda Research Laboratories, Gaithersburg, Md.). Plasmid DNAs from ampicillin-resistant DH5-alpha clones were screened by digestion with BglII (which is unique to vectors containing the cassette) and EcoRI (which cuts in the vector). Positive clones were identified by the presence of two fragments (approximately 0.8 Kbp and 2.9 Kbp). […] After the DNA was subjected to a dideoxy sequencing procedure to confirm that it encoded \"GT\" (Table 1), the plasmid DNA was then cotransfected into COS-7 cells (obtained from the American Type Culture Collection) along with pSVL-hCG-alpha, a pSVL-based plasmid encoding the human glycoprotein hormone alpha-subunit (10, 21), using a DEAE-dextran procedure (10)."}, "[2]": {"test_system": "bovine testes FSH receptors", "assay": "Inhibition of 125I-hFSH binding to bovine testes tissue homogenates (radioligand receptor assay)", "settings": "concentration of recombinant hFSH for 50% inhibition of 125I-hFSH binding divided by that of analog", "description": "as §1, §2"}}}
{"molecule": "B1", "values": [{"measurement": "Activity at LH RECEPTORS relative to that of hCG", "setting": "[1]", "value": 0.53}, {"measurement": "Activity at FSH RECEPTORS relative to that of hFSH", "setting": "[2]", "value": 0.18}]}
